Laboratory results from patent publication US20260226524A1, “GLUTAMINE SYNTHETASE MARKER FOR RECOMBINANT EXPRESSION” (priority 2023, published 2026).

Legend:
[1] = test system: Chinese Hamster Ovary CHO-K1 (CCL-61) host cell; test: Flow cytometry analysis of GS expression via UnaG fluorescence in electroporated cell pools; assay type: cell-based; conditions: about 3 weeks post-seeding, MSX selection, FIGS. 3A-3B
Description: Vector design: Nearly all selectable marker currently used in GS system is Cricetulus griseus-derived GS. To investigate whether the GS from other species further improve titer or screening efficiency, a set of vectors were designed as described below: • a sequence coding for an eel green fluorescent protein UnaG, a 2A self-cleaving peptide and a glutamine synthetase, placed under the control of the SV40 promoter; • two expression cassettes, in which the sequences coding for the heavy chain and light chain of a human anti-RANKL antibody denosumab were placed under the control of CMV promoters, respectively; • a sequence coding for a protein conferring resistance to ampicillin, for use in prokaryotic cells; and • a prokaryotic origin of replication.
(§1) The 2A self-cleaving peptide allowed relatively equal molar expression of the two products separated by it, namely, the green fluorescent protein UnaG and glutamine synthetase. After random integration, GS expression in each individual cell was evaluated by monitoring UnaG level using flow cytometry. Denosumab here served as the secreted reporter for assessing titers using selectable glutamine synthetase markers from different species. The vectors differed from one another by the GS-coding sequences, which were derived from Chinese hamster (Cricetulus griseus), koala (Phascolarctos cinerecus), vesper bat (Pipistrellus kuhlii), gerbil (Meriones unguiculatus), ostrich (Struthio camelus australis), junglefowl (Gallus gallus), pigeon (Columbia Livia), and snake (Pseudonaja textilis), respectively.
(§2) Electroporation and cell screening: Expression vectors described above were first linearized by the restriction endonuclease Pvul (there was one Pvul site in the ampicillin resistant gene). Then linearized vectors were introduced into the host cell using cell electroporator (Lonza Nuleofector 2b). The host cell was derived from ATCC wild-type Chinese Hamster Ovary CHO-K1 (CCL-61) and adapted to serum-free suspension culture at Shanghai ZhenGe Biotech Co. Ltd. 24 hours post electroporation, cell pools were plated into culture flasks or 96-well plates (approximately 1, 200 cells/well, 300 wells per condition) in the absence of or presence of MSX (50 μM).
Flow cytometry analysis of GS expression: About 3 weeks post-seeding, cell pools electroporated with GS gene from indicated species were analyzed using Attune NxT flow cytometer (FIGS. 3A-3C). […] As shown, when the GS from Chinese Hamster was used as the selectable marker, most tested cells (>98%) remained UnaG “negative” in the presence of the MSX, indicating low selection efficiency.

[2] = test system: Chinese Hamster Ovary CHO-K1 (CCL-61) host cell; test: Bio-Layer Interferometry (Octet) analysis of denosumab expression in supernatants of cell pools selected with GS markers; assay type: cell-based; conditions: 50 μM MSX; for pools expressed detectable denosumab (>0.125 ug/mL): Day 20, among 300 seeded pools in 96-well plates, GS used as selectable marker; for median expression value of denosumab of positive pools: Day 20, positive pools (>0.125 ug/mL), Octet ProA biosensor
Protocol: Vector design: Nearly all selectable marker currently used in GS system is Cricetulus griseus-derived GS.
as §1, with “After” for “The 2A self-cleaving peptide allowed relatively equal molar expression of the two products separated by it, namely, the green fluorescent protein UnaG and glutamine synthetase. After”
as §2

B1: vesper bat GS: Pipistrellus kuhlii glutamine synthetase, SEQ ID NO: 8 (nucleotide SEQ ID NO: 17), used as selectable marker (protein, listed as Pipistrellus kuhlii)
chain: MSTSASSQLNKGIKQMYMSLPQGDKVLAMYIWIDGTGEGLRCKTRTLDSEPKSIDELPEWNFDGSSTMQSEGSNSDMYLIPVAMFRDPFRKDPNKLIFCEVFKYNHKPAETNLRYTCKRIMDMVSNQHPWFGMEQEYTLMGTDGHPFGWPSNGFPGPQGPYYCGVGADRAYGRDIVEAHYRACLYAGIKIGGTNAEVMPAQWEFQIGPCEGIEMGDHLWVARFILHRVCEDFGVIATFDPKPIPGNWNGAGCHTNFSTKAMREENGLKYIEESIERLSKRHQYHIRAYDPKGGQDNARRLTGFHETSNINDFSAGVANRSASIRIPRAVGQEKKGYFEDRRPSANCDPFAVTEALIRTCLLNETGDEPFQYKN
modifications: Vesper bat GS
UnaG expression of cells (selection efficiency) [1]: significant amounts of cells showed positive UnaG expression
pools expressed detectable denosumab (>0.125 ug/mL) [2]: 94.0%
median expression value of denosumab of positive pools [2]: 3.39 µg/mL

B2: gerbil GS: Meriones unguiculatus glutamine synthetase, SEQ ID NO: 7 (nucleotide SEQ ID NO: 16), used as selectable marker (protein, listed as Meriones unguiculatus)
chain: MATSASSQLNKGIKQTYLALPQGEKVQAMYIWVDGTGEGLRCKTRTLDCEPKSVEELPEWNFDGSSTFQSEGSNSDMYLTPVAMFRDPFRKEPNKLVFCEVFKYNRKPAETNLRHSCKRIMEMVSNQRPWFGMEQEYTLMGTDGHPFGWPSNGFPGPQGPYYCGVGADKAYGRDIVEAHYRACLYAGVKIAGTNAEVMPAQWEFQIGPCEGVRMGDHLWVARFILHRVCEDFGVIATFDPKPIPGNWNGAGCHTNFSTKAMREENGLKFIEEAIEKLSKRHQYHIRAYDPKGGLDNARRLTGFHETSNINDFSAGVANRSASIRIPRTVGQEKKGYLEDRRPSANCDPYAVTEALVRTCLLNETGDEPFQYKN
modifications: Gerbil GS
UnaG expression of cells (selection efficiency) [1]: significant amounts of cells showed positive UnaG expression
pools expressed detectable denosumab (>0.125 ug/mL) [2]: 63.6%
median expression value of denosumab of positive pools [2]: 2.67 µg/mL
